Laboratory results reported in patent US20080058272A1 (published 2008).
Where two headings read alike, the source gives them in different places.

Tests used:
HLA-A2 [1] = target: T1, HLA-A2 (human, UniProt P04439 25-302 at identity 0.94)); assay: competitive binding assay (flow cytometry)
T1 chain: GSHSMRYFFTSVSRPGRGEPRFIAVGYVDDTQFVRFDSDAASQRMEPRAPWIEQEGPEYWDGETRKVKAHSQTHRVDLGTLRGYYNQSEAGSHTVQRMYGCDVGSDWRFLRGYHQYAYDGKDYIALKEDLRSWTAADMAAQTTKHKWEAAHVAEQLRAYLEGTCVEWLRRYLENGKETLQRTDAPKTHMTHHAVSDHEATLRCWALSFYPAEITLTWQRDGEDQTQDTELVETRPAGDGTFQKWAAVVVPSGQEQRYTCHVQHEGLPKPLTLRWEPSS

HLA-A2 [2] = target: T1, HLA-A2; assay: competitive binding assay (flow cytometry)

An IC50 (HLA-A2 [1]) of 13.3 µM was found for LLYAVYRKL [FAPα^584-592] in this work.

An IC50 (HLA-A2 [1]) of 4.7 µM and an IC50 (HLA-A2 [2]) of 4.7 µM were found for ALVCYGPGI [FAPα^463-471] in this work.

An IC50 (HLA-A2 [1]) of 33.8 µM and an IC50 (HLA-A2 [2]) of 33.8 µM were found for KILEENKEL [FAPα^486-494] in this work.

An IC50 (HLA-A2 [1]) of 8 µM was found for YLESDYSKL [FAPα^113-121] in this work.

An IC50 (HLA-A2 [1]) of 5.6 µM was found for GLFKCGIAV [FAPα^639-647] in this work.

An IC50 (HLA-A2 [1]) of 15.3 µM was found for YLASKEGMV [FAPα^560-568] in this work.

An IC50 (HLA-A2 [1]) of 9.1 µM was found for GLSPDRQFV [FAPα^104-112] in this work.
